Measurements taken from patent US20240400689A1 (ANTENGENE BIOLOGICS, published 2024).
Where two headings read alike, the source gives them in different places.

T1: human CD276 protein (human, UniProt Q5ZPR3 29-534)
T1 construct: whole, on cells; for SKOV3 and the other cancer lines the protein is the cells' own; also called B7-H3; B7H3
T1 sequence (looked up): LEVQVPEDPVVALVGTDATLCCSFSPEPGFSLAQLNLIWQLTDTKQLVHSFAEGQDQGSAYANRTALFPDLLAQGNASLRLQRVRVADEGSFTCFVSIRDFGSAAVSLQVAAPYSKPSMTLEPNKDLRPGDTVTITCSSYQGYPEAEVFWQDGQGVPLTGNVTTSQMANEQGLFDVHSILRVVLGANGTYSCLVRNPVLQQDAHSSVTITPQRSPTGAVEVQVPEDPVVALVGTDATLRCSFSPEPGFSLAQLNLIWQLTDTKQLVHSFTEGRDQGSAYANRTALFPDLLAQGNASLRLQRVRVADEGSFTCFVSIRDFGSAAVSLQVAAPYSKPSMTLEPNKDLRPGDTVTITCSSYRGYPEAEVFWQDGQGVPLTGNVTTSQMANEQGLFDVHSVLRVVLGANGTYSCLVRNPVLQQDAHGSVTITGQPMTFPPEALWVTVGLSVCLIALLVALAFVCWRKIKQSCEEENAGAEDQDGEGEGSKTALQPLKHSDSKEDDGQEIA

T2: HUMAN B7H3 (Biacore analyte) (human, UniProt Q5ZPR3 29-461, limits assumed)
T2 construct: also called hB7H3
T2 sequence (looked up): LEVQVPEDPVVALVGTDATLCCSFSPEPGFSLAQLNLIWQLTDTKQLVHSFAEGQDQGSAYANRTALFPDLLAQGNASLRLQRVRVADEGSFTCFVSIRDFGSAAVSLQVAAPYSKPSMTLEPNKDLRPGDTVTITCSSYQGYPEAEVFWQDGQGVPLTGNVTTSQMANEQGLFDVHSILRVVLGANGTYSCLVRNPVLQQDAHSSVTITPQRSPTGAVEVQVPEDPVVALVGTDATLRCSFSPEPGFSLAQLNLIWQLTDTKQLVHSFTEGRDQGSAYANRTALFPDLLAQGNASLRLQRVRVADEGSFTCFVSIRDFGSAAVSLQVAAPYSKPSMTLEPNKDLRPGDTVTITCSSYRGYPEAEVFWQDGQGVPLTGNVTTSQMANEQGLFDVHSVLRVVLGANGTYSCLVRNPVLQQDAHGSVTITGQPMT

B1: 14-E7-G9-D4 (human IgG1 chimeric antibody) (antibody, V domains shown)
VH: EVQLQQSGPELVKPGASVKMSCKASGYTFTNYIMHWVKQKPGQGLEWIGYINPYNDGIKYNEKFKGKATLTSDKSSSTAYMELSSLTSEDSAVYYCTRWGNYVFYYTMDYWGQGTSVTVSS
VL: QIVLSQSPAILSASPGEKVTMTCRASSSVSYMHWYQQKPGSSPKPWIYATSNLASGVPARFSGSGSGTSYSLTISRMEAEDAATYYCQQWSGNPPLTFGAGTKLELK
notes: human IgG1 chimeric antibody of the mouse clone
B2: 30-E2-G7-G7 (human IgG1 chimeric antibody) (antibody, V domains shown)
VH: EVQLQESGGGLVKPGGSLKLSCAASGFTFSYYAMSWVRQTPEKRLEWVATINGDGSHTYYPDSVRGRFTISRDNAKNTLYLQVSSLRSEDTAMYYCASLLQLGPFWGQGTTLTVSS
VL: DIVMTQSQKFMSTSVGDRVSVTCKASQNVGTNVAWYHQRPGQSPKPLIYSASYRYSGVPDRFTGSGSGTDFTLTISNVQSEDLAEYFCQQYNNYPLTFGSGTKLEIK
notes: as for B1
B3: 27-E7-D8-C7 (human IgG1 chimeric antibody) (antibody, V domains shown)
VH: EVQLQESGPELVRPGVSVKISCKGSGYTFTDYAMHWVKQSHAKSLEWIGVINTYSDNTNYNRKFKGKATMTVDKSSSTAYMELARLTSEDSAIYYCARGLLLRSQLGVYFDYWGQGTTLTVSS
VL: QIVLSQSPAILSASPGEKVTMTCRASSSVSYMHWYQQKPGSSPKPWIYATSNLASGVPARFSGSGSGTSYSLTISRVEAEDAATYYCQQWSSNPWTFGGGTKLEIK
notes: as for B1
B4: 10-G6-C4-B2_hVH2-VL1_PTM (antibody, V domains shown)
VH: EVQLVESGGGLVQPGGSLRLSCATSGFTLSDYYMSWVRQAPGKGLEWVSFMRNKANAYTTEYSASVRGRFTISRDTSKSTIYLQMNSLRAEDTAVYYCVRDREGRPFAYWGQGTLVTVSS
VL: DIVMTQSPDSLAVSLGERATINCKSSQSLLNAINQKNFLTWYQQKPGQPPKLLIYWASTRESGVPDRFSGSGSGTDFTLTISSLQAEDLAVYYCQNDYTYPLTFGQGTKLEIK
notes: humanized, PTM-optimized antibody from 10-G6-C4-B2
B5: 10-G6-C4-B2_hVH4-VL1_PTM (antibody, V domains shown)
VH: EVQLVESGGGLIQPGGSLRLSCATSGFTLSDYYMSWVRQPPGKGLEWVSFMRNKANAYTTEYSASVRGRFTISRDTSKSTIYLQMNSLRAEDTAVYYCVRDREGRPFAYWGQGTLVTVSS
VL: DIVMTQSPDSLAVSLGERATINCKSSQSLLNAINQKNFLTWYQQKPGQPPKLLIYWASTRESGVPDRFSGSGSGTDFTLTISSLQAEDLAVYYCQNDYTYPLTFGQGTKLEIK
notes: as for B4
B6: 3-G7-D8-D3 (human IgG1 chimeric antibody) (antibody, V domains shown)
VH: QVQLQQSGAELARPGTSVKLSCKASGYTFTTYWIQWVKQRPGQGLEWIGAIYPGDGDTRYTQKFKGKATLTADKSSSTAYMQLSTLASEDSAVYYCARPYDGYYIDYPMDSWGQGTSVTVSS
VL: QIVLTQSPAIMSASPGEKVTMTCSASSRINYMHWYQQKPGTSPIIWIYDTSKLASGVPARFSGSGSGTSYSLTISSMEAEDAATYYCHQRSSYPFTFGSGTKLEIK
notes: as for B1
B7: 20-F8-B5-G2 (human IgG1 chimeric antibody) (antibody, V domains shown)
VH: EVQLQESGPSLVKPSQTLSLTCSVTGDSITSAYWNWIRKFPGNKLEYMGYISNSGSTYYNPSLKSRISITRDTSKNQYYLQLNSVTTEDTGTYYCVRGERYYGYGAYWGQGTLVTVSA
VL: DIVMTQATPSVPVTPGESISISCRSSKSLLHSNGNTYLYWFLQRPGQSPQLLIYRMSNLASGVPDRFSGSGSGTAFTLRISRVEAEDVGVYYCMQHLEYPFTFGAGTKLELK
notes: as for B1
B8: 9-G2-H6-E4 (human IgG1 chimeric antibody) (antibody, V domains shown)
VH: EVQLQQSGPDLVKPGASVKISCKASGYSFTGYFMNWVKQRHGKSLEWIGYINPNNGDTIYNQKFKGKATLTVDKSSSTAHMELLSLTSEDSAVYYCGRGGLPFGALDYWGQGTSVTVSS
VL: DIVMSQSPSSLAVSVGEKVNMSCKSSQSLLYSRNQKNYLAWNQQKPGQSPKLLIYWASARESGVPDRFTGSGSGTDFTLTISSVKAEDLAAYYCQQYHSYPYTFGGGTKLELK
notes: as for B1
B9: 11-G10-B4-B11 (human IgG1 chimeric antibody) (antibody, V domains shown)
VH: DVQLQESGPGLVKPSQSLSLTCTVTGYSITSDYAWNWIRQFPGNKLEWMGYISYSGSTSYNPSLKSRISITRDTSKNQFFLQLNSVTTEDTATYYCARGGPWFAYWGQGTLVTVSA
VL: DVVMTQTPLSLPVSLGDQASISCRSSQSLVHSNGNTYLHWYLQKPGQSPKLLIYKVSNRFSGVPDRFSGSGSGTDFTLKISRVEAEDLGVYFCSQSTHVPFTFGSGTKLEIK
notes: as for B1
B10: 21-B3-B1-H5 (human IgG1 chimeric antibody) (antibody, V domains shown)
VH: QIQLVQSGPELKKPGETVKISCKASGYIFRNYGMNWVKQAPGKGLKWMGWINSYTGKPTYVDDFKGRFAFSLETSASTAYLQINNLKNEDMATYFCARDDGYWYTMDYWGQGTSVTVSS
VL: DVVMTQTPLSLPVSLGDQASISCRSSQSLVHSNGHTYLHWYLQKPGQSPKLLIYKVSNRFSGVPDRFSGSGSGTDFTLKISRVEAEDLGVYFCSQSTHVPWTFGGGTKLEIK
notes: as for B1
B11: 16-G3-D10-C10 (human IgG1 chimeric antibody) (antibody, V domains shown)
VH: QIQLVQSGPELKKPGETVKISCKASGYTFRNYGMNWVKQGPGKDLKWMGWINPYTGEPTYIGDFKGRFAFSLETSANSAYLQINNLNNEDMATYFCARDDGYWYTMDYWGQGTSVTVSS
VL: DVVMTQTPPSLPVSLGDQASIPCRSSQSLVHSNGITYLHWYLQKPGQSPKLLIYKVSNRFSGVPDRFSGSGSGTDFTLKISRVEAEDLGVYFCSQSTHVPWTFGGGTKLEIK
notes: as for B1
B12: 27-F8-E10-E11 (human IgG1 chimeric antibody) (antibody, V domains shown)
VH: EVQLQQSGPELVKPGASVKISCKTSGYTFTEYAMHWVKQSHGKILEWIGGINPNIGGTTYNQKFKDKATLTVDKSSSTASMELRSLTSEDSAVYYCARFLVPSTEGFTYWGQGTLVTVSA
VL: QIVLTQSPAIMSASPGEKVTMTCSASSSVSYMHWYQQKSGTSPKRWIYDTSRVASGVPARFSGSGSGTSYSLTISSMEAEDAATYYCQQWSSNPLTFGAGTKLELK
notes: as for B1
B13: 3-C2-C3-E7 (human IgG1 chimeric antibody) (antibody, V domains shown)
VH: EVQLQQSGPELVKPGASVKISCKTSGYTFTENTMHWVKQSHGKRLEWIGGINPNTGGTTYNQKFKGKATLTVDKSSSTAYMELRSLTSEDSAVYYCARRGTNWEHWYFDVWGAGTTVTVSS
VL: QIVLTQSPAIMSASPGEKVTMTCSASSSVSYMHWYQQKSGTSPKRWIYDTSKLASGVPARFSGSGSGTSYSLTISSMEAEDAATYYCQQWSSNPLTFGAGTKLELK
notes: as for B1
B14: 15-G1-D1-E3 (human IgG1 chimeric antibody) (antibody, V domains shown)
VH: QVQLQQPGAELVKPGTSVKLSCKASGYTFTSYWIHWVKQRPGQGLEWIGMIHPKSGTVDYNEKFKSKATLTADKSSNTAYMQLSSLTSEASVVYYCARGENYDYRPQFVYWGQGTLVTVSA
VL: QLVLTQSSSASFSLGASAKLTCTLSSQHSTYTIEWYQQQPLKPPKYVMELKKDGSHRTGDGIPDRFSGSSSGADRYLSISNIQPEDEAIYICGVGDTIKEQFVYVFGGGTKVTVL
notes: as for B1

Key:
human CD276 protein [1] = target: T1, human CD276 protein; assay: FACS on SKOV3 cells
Source text: Sequences of 31 mouse antibodies from Table 5 were selected to generate and produce human IgG1 chimeric antibodies. The binding affinity of these antibodies and bench mark antibody, Enoblituzumab (see U.S. Pat. No. 8,802,091, MGA271, specifically with a construct designated as hBRCA84D-2) and MGC018 (an antibody-drug-conjugate, in which the mAb MGA017 (human IgG1) is conjugated via a cleavable linker to the prodrug seco-DUocarmycin hydroxyBenzamide Azaindole (DUBA), an alkylating agent that can damage DNA in both dividing and non-dividing cells, thereby causing cell death) with human patient derived ovarian cancer cell line, SKOV3, was determined by FACS analysis.
1. Digested cells using Trypsin (1×); Centrifuged the harvested cells at 300 g for 3 min and discarding the supernatant. […] 2. Washed the cells 2 times with FACS buffer by centrifuging at 300 g for 3 min and discarding the supernatant. [0445] 3. […] Kept the cells in dark for FACS analysis.

human CD276 protein [2] = target: T1, human CD276 protein; assay: cell-based or functional assay
[3] = target: T2, HUMAN B7H3 (Biacore analyte); assay: SPR, Biacore 8K, antibody captured, B7H3 as analyte, 1:1 binding
human CD276 protein [4] = target: T1, human CD276 protein; assay: cell-based or functional assay; remark: listed apart in the source
[5] = target: T2, HUMAN B7H3 (Biacore analyte); assay: SPR, Biacore 8K, antibody captured, B7H3 as analyte, 1:1 binding; remark: listed apart in the source

Binder	EC50 (human CD276 protein [1]) [µg/mL]	MFI (Max) (human CD276 protein [1])	EC50 of antibody induced ADCC effect on SKOV3 (human CD276 protein [2]) [µg/mL]	other results
B1	1.62	2730	0.252	–
B2	0.814	5630	0.247	–
B3	0.542	4750	0.103	–
B4	–	–	–	Kd [3]: 0.851 nM; koff [3]: 7.26e-05 s⁻¹; kon [3]: 85300 M⁻¹ s⁻¹
B5	–	–	–	Kd [3]: 1.73 nM; koff [3]: 0.000155 s⁻¹; kon [3]: 89600 M⁻¹ s⁻¹
B6	0.509	1210	0.00898	–
B7	1.11	3010	3.01	–
B8	3.66	292	13.6	–
B9	0.536	3750	17.3	–
B10	0.723	2720	0.648	–
B11	1.31	3180	0.0419	EC50 of antibody induced CDC effect (human CD276 protein [4]): 1.43 nM; Top cytotoxicity (%), CDC (human CD276 protein [4]): 93.6%; Kd [5]: 1.16 nM; koff [5]: 0.000214 s⁻¹; kon [5]: 185000 M⁻¹ s⁻¹
B12	2.26	3220	0.0238	Kd [5]: 0.621 nM; koff [5]: 0.000173 s⁻¹; kon [5]: 278000 M⁻¹ s⁻¹
B13	1.43	3700	0.186	–
B14	0.811	3190	0.0655	Kd [5]: 0.383 nM; koff [5]: 0.000211 s⁻¹; kon [5]: 550000 M⁻¹ s⁻¹
